In this assay the target is T1, GST-EZH2 fragment A, N-terminal region (Domain I + Domain II), aa 1-522 (UniProt Q15910 1-522).
T1 construct: Cloned in pGEX-4T-1; also called fragment A of EZH2; source: E. coli BL21, purified (Glutathione Sepharose 4B)
T1 sequence (looked up): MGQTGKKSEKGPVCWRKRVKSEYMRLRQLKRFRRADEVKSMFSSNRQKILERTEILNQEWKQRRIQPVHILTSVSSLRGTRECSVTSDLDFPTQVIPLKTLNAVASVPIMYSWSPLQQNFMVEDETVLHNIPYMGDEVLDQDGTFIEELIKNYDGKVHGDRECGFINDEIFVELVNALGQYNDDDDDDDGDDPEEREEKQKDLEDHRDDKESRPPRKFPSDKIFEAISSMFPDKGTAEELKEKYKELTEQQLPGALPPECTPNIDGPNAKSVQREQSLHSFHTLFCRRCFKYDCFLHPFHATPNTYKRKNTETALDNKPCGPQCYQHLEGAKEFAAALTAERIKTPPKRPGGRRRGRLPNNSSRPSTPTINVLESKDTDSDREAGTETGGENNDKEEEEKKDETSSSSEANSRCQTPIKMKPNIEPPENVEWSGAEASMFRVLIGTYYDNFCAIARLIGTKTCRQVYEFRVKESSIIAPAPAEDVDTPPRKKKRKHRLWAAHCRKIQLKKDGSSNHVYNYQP
Put plainly: pull-down; in vitro pull-down with purified proteins: GST-EZH2 (aa 1-522) and MBP-TFIIIC102 fragment C (aa 524-886). The conditions noted are these: both partners purified.

B1: MBP-TFIIIC102 fragment C (aa 524-886) (domain or fragment, UniProt Q9Y5Q9 524-886, looked up)
chain: QDANAAQQELKLLLHRSTLLFSQGKMYGYVDTLLTMLAMLLKVAMNRAQVCLISSSKSGERHLYLIKVSRDKISDSNDQESANCDAKAIFAVLTSVLTKDDWWNLLLKAIYSLCDLSRFQEAELLVDSSLEYYSFYDDRQKRKELEYFGLSAAILDKNFRKAYNYIRIMVMENVNKPQLWNIFNQVTMHSQDVRHHRFCLRLMLKNPENHALCVLNGHNAFVSGSFKHALGQYVQAFRTHPDEPLYSFCIGLTFIHMASQKYVLRRHALIVQGFSFLNRYLSLRGPCQESFYNLGRGLHQLGLIHLAIHYYQKALELPPLVVEGIELDQLDLRRDIAYNLSLIYQSSGNTGMAQTLLYTYCSI
notes: source: purified
B1: the binding result is listed as “binds”.

The record behind these values is paper PMC4513857, “PRC2 regulates RNA polymerase III transcribed non-translated RNA gene transcription through EZH2 and SUZ12 interaction with TFIIIC complex” (Nucleic Acids Research, 2015).
